# Measurements as given in US20060110789.
# What was measured:
# [1] = molecular target: diketide-ACP4(4) (DEBS ACP4 with its natural C-terminal linker, loaded with diketide) (UniProt Q03132)
# [2] = molecular target: diketide-ACP4(Ø) (DEBS ACP4 without linker, loaded with diketide) (UniProt Q03132)
# [3] = molecular target: diketide-ACP2(4) (DEBS ACP2 with the C-terminal linker of module 4, loaded with diketide) (UniProt Q03131)
# [4] = molecular target: diketide-ACP2(2) (DEBS ACP2 with its natural C-terminal linker, loaded with diketide) (UniProt Q03131)
# DEBS-2 = DEBS-2 (UniProt Q03132)
substance,measurement,setting,value
"(3)M5+TE (module 5 of DEBS with the N-terminal linker of module 3, fused to thioesterase)","kcat/KM, fold decrease against the matched reaction (FIG. 28 B)",[1],"fell approximately 20-fold and 150-fold, respectively"
same,triketide lactone formation at 20 µM substrate (FIG. 28 B),[1],transfer of diketide from the donor ACP to the acceptor module occurred at 20 µM substrate concentration
same,kcat/KM (FIG. 29 B),[2],41.7 M⁻¹ s⁻¹
"(5)M5+TE (module 5 of DEBS with its own N-terminal linker, fused to thioesterase)","conversion of acyl-ACP into triketide lactone in 1 h (20 µM 4, 1 µM (5)M5+TE)",[1],70% of the acyl-ACP was converted into triketide lactone in 1 h
same,"elongation rate constant (kcat) with 4b, fold increase against the NAC thioester 2b",[1],the elongation rate constant (kcat) increases at least 25-fold
same,k60 µM (printed there as kcat/KM),[1],kcat/KM values of 1.4 min-1 and 9.3 min^-1
same,kcat/KM,[1],kcat/KM values of 390 min^-1 mM^-1 and 290 min^-1mM^-1
same,triketide lactone formation at 20 µM substrate (FIG. 28 A),[1],transfer of diketide from the donor ACP to the acceptor module occurred at 20 µM substrate concentration
same,"kcat/KM, fold decrease against the matched reaction (FIG. 28 C)",[3],"fell approximately 20-fold and 150-fold, respectively"
same,triketide lactone formation at 20 µM substrate (FIG. 28 C),[3],transfer of diketide from the donor ACP to the acceptor module occurred at 20 µM substrate concentration
same,kcat/KM (FIG. 29 A),[2],68.3 M⁻¹ s⁻¹
same,triketide lactone formation at 20 µM substrate (FIG. 28 D),[4],no product was detected at the same substrate concentrations
"(5)M6+TE (module 6 of DEBS with the N-terminal linker of module 5, with thioesterase)","kcat/KM, fold decrease against diketide-ACP4(4) with the same module",[2],the kcat/KM values drop approximately 70-300 fold
ery M1-RAL rifM5+ERL,6-dEB production on co-transformation in S. coelicolor (with DEBS-3),DEBS-2,Yes (dEB6)
